Target: T1, GST-FHL3 (human, UniProt Q13643 1-280)
T1 construct: Four and a half LIM domain protein 3 (FHL3), human, full length cDNA amplified from pBV220/FHL3, in pGEX-4T-1; also called GST–FHL3 fusion protein; source: E. coli DH5α, purified (GSTrap FF column)
T1 sequence (looked up): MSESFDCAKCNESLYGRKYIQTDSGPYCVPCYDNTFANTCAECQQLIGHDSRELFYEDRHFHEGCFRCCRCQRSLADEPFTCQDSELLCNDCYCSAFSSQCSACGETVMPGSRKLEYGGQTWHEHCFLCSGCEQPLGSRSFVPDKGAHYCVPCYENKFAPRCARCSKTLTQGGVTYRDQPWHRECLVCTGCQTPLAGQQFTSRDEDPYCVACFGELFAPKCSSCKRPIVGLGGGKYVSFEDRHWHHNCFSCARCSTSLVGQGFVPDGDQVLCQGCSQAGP
Assay: pull-down; purified GST-FHL3 or GST on Glutathione Agarose, His-MT-1X from in vitro translation added, 4°C overnight; Western blot with anti-His
Conditions: both partners purified

binding result: binds
B1: His-MT-1X (natural protein)
chain: not shown
notes: MT-1X (metallothionein-1X), human; cDNA amplified by PCR from pACT2/MT-1X (the full length clone); also called pT7/MT-1X; source: in vitro translated (pT7CFE1-CHis)

From PMC3972135, “Identification and Characterization of MT-1X as a Novel FHL3-Binding Partner” (PLoS ONE, 2014)
